Values quoted from earlier work as cited in publication PMC10910082.
Like-named read-outs stand apart in the source and are kept apart here.

Columns and labels:
CD80 (Homo sapiens) = CD80 (Homo sapiens) (UniProt P33681)
CD86 (Homo sapiens) = CD86 (Homo sapiens) (UniProt P42081)
CD155 (Homo sapiens) [1] = target: CD155 (Homo sapiens) (UniProt P15151)
CD155 (Homo sapiens) [2] = target: CD155 (Homo sapiens) (UniProt P15151); remark: listed apart in the source

UniProt P15151, sequence (P15151 21-343): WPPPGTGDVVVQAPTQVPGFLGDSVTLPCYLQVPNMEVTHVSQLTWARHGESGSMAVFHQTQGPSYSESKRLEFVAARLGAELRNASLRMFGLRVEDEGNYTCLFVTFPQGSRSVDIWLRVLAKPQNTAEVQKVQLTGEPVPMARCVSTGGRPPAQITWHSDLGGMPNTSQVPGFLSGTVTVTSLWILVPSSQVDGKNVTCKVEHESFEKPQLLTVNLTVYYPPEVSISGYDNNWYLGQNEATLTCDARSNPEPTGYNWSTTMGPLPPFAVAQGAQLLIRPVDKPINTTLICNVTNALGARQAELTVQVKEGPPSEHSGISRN
UniProt P42081, sequence (P42081 24-247): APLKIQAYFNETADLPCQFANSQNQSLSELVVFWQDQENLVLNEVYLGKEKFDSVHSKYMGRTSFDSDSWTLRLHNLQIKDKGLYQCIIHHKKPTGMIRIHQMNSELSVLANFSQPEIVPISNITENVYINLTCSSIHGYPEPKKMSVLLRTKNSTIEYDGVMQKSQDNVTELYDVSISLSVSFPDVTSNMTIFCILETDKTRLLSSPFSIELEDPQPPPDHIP
UniProt P33681, sequence (P33681 35-242): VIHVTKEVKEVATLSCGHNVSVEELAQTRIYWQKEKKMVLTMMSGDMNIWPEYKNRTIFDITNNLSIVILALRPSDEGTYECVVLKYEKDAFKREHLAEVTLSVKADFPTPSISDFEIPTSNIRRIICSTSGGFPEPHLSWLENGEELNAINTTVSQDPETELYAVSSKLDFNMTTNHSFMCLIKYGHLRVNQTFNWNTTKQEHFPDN

CD28 (from UniProt P10747)
Kd (CD80 (Homo sapiens)): 4 µM
Kd (CD86 (Homo sapiens)): 27.5 µM

CD226 (from UniProt Q15762)
Kd (CD155 (Homo sapiens) [1]): 116 nM

TIGIT (from UniProt Q495A1)
Kd (CD155 (Homo sapiens) [2]): 2 nM
